# Where a chain is given by its changes, count along the chain named.
# T1: cynomolgus monkey SIRPγ-His monomer protein (cynomolgus monkey, UniProt Q9P1W8 29-359 (human entry), limits assumed)
# T1 construct: also called Cyno SIRPγ; Cyno SIRPγ-His
# T1 chain: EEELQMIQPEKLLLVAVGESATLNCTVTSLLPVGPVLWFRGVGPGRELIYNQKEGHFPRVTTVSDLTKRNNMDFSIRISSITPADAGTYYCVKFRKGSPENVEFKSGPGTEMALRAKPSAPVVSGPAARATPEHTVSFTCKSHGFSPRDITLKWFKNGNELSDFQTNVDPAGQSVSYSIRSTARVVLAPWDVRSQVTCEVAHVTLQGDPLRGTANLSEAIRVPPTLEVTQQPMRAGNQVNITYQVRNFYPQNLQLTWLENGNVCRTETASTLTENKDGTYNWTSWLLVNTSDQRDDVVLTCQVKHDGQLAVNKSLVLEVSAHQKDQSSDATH
# T2: cynomolgus monkey SIRPα on CHO cells (cynomolgus monkey, UniProt A0A2K5VYQ9 31-507)
# T2 construct: whole, on cells; also called Cyno SIRPα CHO
# T2 sequence: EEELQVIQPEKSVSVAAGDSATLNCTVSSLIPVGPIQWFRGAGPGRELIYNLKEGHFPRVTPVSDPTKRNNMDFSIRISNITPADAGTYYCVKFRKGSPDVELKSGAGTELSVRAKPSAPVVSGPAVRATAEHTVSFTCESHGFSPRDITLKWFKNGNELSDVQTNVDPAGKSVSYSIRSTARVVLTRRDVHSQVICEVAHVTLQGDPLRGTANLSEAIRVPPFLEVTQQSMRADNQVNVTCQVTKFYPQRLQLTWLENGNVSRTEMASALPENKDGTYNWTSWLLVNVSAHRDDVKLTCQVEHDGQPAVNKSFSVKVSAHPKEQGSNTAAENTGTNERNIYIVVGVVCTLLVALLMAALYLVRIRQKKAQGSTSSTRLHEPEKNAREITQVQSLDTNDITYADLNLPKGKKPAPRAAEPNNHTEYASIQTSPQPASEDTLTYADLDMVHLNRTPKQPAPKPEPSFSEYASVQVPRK
# T3: cynomolgus monkey SIRPγ on CHO cells (cynomolgus monkey, UniProt Q9P1W8 29-386 (human entry))
# T3 construct: also called Cyno SIRPγ CHO
# T3 chain: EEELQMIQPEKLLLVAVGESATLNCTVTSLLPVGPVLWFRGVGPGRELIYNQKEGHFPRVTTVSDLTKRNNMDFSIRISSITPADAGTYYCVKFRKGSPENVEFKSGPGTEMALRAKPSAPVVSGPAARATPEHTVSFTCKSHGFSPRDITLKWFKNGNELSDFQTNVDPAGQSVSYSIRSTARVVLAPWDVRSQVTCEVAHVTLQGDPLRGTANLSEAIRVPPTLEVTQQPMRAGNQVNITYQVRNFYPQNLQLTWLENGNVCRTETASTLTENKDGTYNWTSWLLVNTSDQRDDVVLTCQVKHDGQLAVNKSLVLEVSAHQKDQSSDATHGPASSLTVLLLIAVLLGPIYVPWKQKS
# T4: Cynomolgus Monkey SIRPγ (plate-coated extracellular domain)
# T4 construct: also called Cyno SIRPγ
# T4 extracellular domain: T1 chain
# B1: Antibody 97 (antibody, V domains shown)
# VH: QVQLVQSGAEVKKPGASVKVSCKASGHTFNNNYIHWVRQAPGQGLEWMGIINPSGGSTSYAQKFQGRVTMTRDTSTSTVYMELSSLRSEDTAVYYCARQIQDYGYYYYGMDVWGQGTTVTVSS
# VL: EIVMTQSPATLSVSPGERATLSCRASQSVSKYLAWYQQKPGQAPRLLIYAISARAAGIPARFSGSGSGTEFTLTISSLQSEDFAVYYCQQYYSSPPTFGQGTKVEIK
# B2: Antibody 94 (antibody, V domains shown)
# VH: QVQLVQSGAEVKKPGASVKVSCKASGYTFTSYGISWVRQAPGQGLEWMGWISAYNGNTNYAQKFQGRVTMTRDTSTSTVYMELSSLRSEDTAVYYCARGTYYDYIWGSYRYSWFDYWGQGTLVTVSS
# VL: not shown
# B3: Antibody 88 (antibody, V domains shown)
# VH: QVQLVQSGAEVKKPGASVKVSCKASGYTFTSHDINWVRQAPGQGLEWMGWMNANNGNAGYAQKFQGRVTMTRDTSTSTVYMELSSLRSEDTAVYYCAKDLSPSSSWSTYYYYYGMDVWGQGTMVTVSS
# VL: DIQMTQSPSSLSASVGDRVTITCRASQSISNLLAWYQQKPGKAPKLLIYAASSLQSGVPSRFSGSGSGTDFTLTISSLQPEDFATYYCQQSYSTPYTFGQGTKLEIK
# B4: Antibody 95 (antibody, V domains shown)
# VH: QVQLVQSGAEVKKPGASVKVSCKASGYTFTSYYMHWVRQAPGQGLEWMGWMNPNSGNTGYAQKFQGRVTMTRDTSTSTVYMELSSLRSEDTAVYYCARDQMYSSYGMDVWGQGTTVTVSS
# VL: B3 VL with Q27E, S30T, L32W, A50K, Q55E, S93G, L104V
# B5: Antibody 90 (antibody, V domains shown)
# VH: QVQLVQSGAEVKKPGASVKVSCKASGYTFTSYYMHWVRQAPGQGLEWMGWMNPNSDNTGYAQKFQGRVTMTRDTSTSTVYMELSSLRSEDTAVYYCARVGVGYGYYYYGMDVWGQGTTVTVSS
# VL: B3 VL with S26G, S30G, N31D, L32Y, A34N, Y96W, L104V
# B6: Antibody 84 (antibody, V domains shown)
# VH: QVQLVQSGAEVKKPGASVKVSCKASGYTFTSYYMHWVRQAPGQGLEWMGWINPNSGNAGFAQKFQGRVTMTRDTSTSTVYMELSSLRSEDTAVYYCARGPVYSYGPFDYWGQGTLVTVSS
# VL: B3 VL with S28G, N31T, L32Y, S53T, Y92H, T94A, Y96I, L104V
# B7: Antibody 64 (antibody, V domains shown)
# VH: QVQLVQSGAEVKKPGASVKVSCKASGYTFTSYYMHWVRQAPGQGLEWMGRINPNSGGTKYAQKFQGRVTMTRDTSTSTVYMELSSLRSEDTAVYYCARLGSAYFDLWGRGTLVTVSS
# VL: DIQMTQSPSSLSASVGDRVTITCRASQSVDTWLAWYQQKPGKAPKLLIYEASTLESGVPSRFSGSGSGTDFTLTISSLQPEDFATYYCQQANSFPITFGQGTRLEIK
# B8: Antibody 54 (antibody, V domains shown)
# VH: QVQLVQSGAEVKKPGASVKVSCKASGYSFSDYYMHWVRQAPGQGLEWMGWMSPNSGNTGYAQKFQGRVTMTRDTSTSTVYMELSSLRSEDTAVYYCARQREEYGHYYYGMDVWGQGTMVTVSS
# VL: EIVMTQSPATLSVSPGERATLSCRASQSLGSTYLAWYQQKPGQAPRLLIYGASTRATGIPARFSGSGSGTEFTLTISSLQSEDFAVYYCQQYYSSPPTFGQGTKVEIK
# Molecular target: T1, cynomolgus monkey SIRPγ-His monomer …
# Experiment: BLI Octet, antibody on AHC, global 1:2 model
# Procedure: (§1) Antibodies were coated onto anti-human Fc capture (AHC) biosensors. SIRP-His monomer protein or bivalent SIRP protein with mouse Fc at four concentrations (200 nM, 100 nM, 50 nM, 25 nM) were exposed to the biosensor to measure on-rate kinetics of SIRP antibodies binding to SIRP protein. The biosensors were then exposed to wash buffer to measure off-rate kinetics. The resulting kinetic data were analyzed and fitted using a global 1:2 binding model.
row,Kd [nM],Binder
1,16.3,B1
2,42.6,B2
3,67.8,B3
4,40.3,B4
5,69.2,B5
6,34.1,B6

# Molecular target: T5, human SIRPγ-His monomer protein (human, UniProt Q9P1W8 29-360)
# T5 construct: also called hSIRPγ
# T5 sequence (Q9P1W8 29-360 limits assumed): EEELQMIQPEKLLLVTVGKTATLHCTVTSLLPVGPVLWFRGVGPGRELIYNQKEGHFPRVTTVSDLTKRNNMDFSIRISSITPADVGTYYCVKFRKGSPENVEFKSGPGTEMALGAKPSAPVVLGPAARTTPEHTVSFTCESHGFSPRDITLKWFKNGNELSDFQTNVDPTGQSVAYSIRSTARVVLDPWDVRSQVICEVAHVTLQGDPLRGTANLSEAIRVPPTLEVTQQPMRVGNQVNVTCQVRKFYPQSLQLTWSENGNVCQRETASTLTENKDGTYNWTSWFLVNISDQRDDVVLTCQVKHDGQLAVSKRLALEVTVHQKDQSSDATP
# Experiment: BLI Octet, antibody on AHC, global 1:2 model
# Procedure: as §1
row,Kd [nM],Binder
1,362,B1
2,30.1,B2
3,136,B3
4,193,B4
5,175,B5

# Molecular target: T6, bivalent human SIRPγ protein with mouse Fc (human, UniProt Q9P1W8 29-360)
# T6 construct: also called Human SIRPγ-mFc
# T6 sequence (Q9P1W8 29-360 limits assumed): as above
# Experiment: BLI Octet, antibody on AHC, global 1:2 model
# Procedure: as §1
row,Kd [nM],Binder
1,48.4,B1
2,80.2,B2
3,50.6,B3
4,1280,B4
5,87.6,B5
6,2050,B6

# Molecular target: T7, extracellular binding domain of human SIRPγ (plate-coated) (human, UniProt Q9P1W8 29-360)
# T7 construct: also called hSIRPγ
# T7 sequence (Q9P1W8 29-360 limits assumed): as above
# Experiment: competition ELISA, coated SIRPγ ECD, antibody 1 h then 10 µg/mL biotinylated CD47-Fc (blocked ligand), streptavidin-HRP
# Procedure: To carry out the competition experiment, the extracellular binding domain of SIRPγ was coated onto a high protein-binding plate and blocked. A titration of each SIRPγ antibody was incubated on the plate for 1 hour. […] Following a wash, streptavidin-HRP was added. The plate was washed again and developed using a chemiluminescent substrate. The plate was read on a plate reader to assess luminescence. […] A known blocker antibody was used as a positive control.
row,IC50 (read off the curve) [µg/mL],Binder
1,~0.3,B1
2,~0.2,B2
3,~0.2,B7
4,~0.4,B3
5,~1,B4
6,~0.2,B5
7,~0.2,B6
8,~0.1,B8

# Molecular target: T8, human SIRPβ1 on CHO cells (co-transfected with DAP12) (human, UniProt O00241 30-398)
# T8 construct: whole, on cells; co-transfected with DAP12; also called Human SIRPβ1 CHO
# T8 sequence (O00241 30-398): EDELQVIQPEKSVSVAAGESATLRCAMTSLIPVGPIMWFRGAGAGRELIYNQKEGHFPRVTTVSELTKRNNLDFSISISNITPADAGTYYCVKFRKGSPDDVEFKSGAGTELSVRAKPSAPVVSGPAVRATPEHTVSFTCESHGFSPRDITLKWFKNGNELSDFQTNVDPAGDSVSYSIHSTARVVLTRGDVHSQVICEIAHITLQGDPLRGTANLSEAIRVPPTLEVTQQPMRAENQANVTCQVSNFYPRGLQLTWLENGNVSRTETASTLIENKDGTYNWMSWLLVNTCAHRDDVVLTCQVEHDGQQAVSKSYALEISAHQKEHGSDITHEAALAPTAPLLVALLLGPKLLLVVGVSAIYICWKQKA
# Experiment: flow cytometry, CHO transfectants, anti-human IgG
# Method in brief: (§2)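 The CHO lines were stably transfected, with SIRPβ1 co-transfected with DAP12 where present. Titrated antibody was detected by labelled anti-human IgG and scored as MFI. The myc-scFv PPE was screened on these lines and on CHO-K1 parental cells, and fold change <2.0 was classed as non-binder.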
row,binding result,Binder
1,no binding (tested: about 30 µg/mL),B1
2,no binding (tested: about 30 µg/mL),B2
3,no binding (tested: about 30 µg/mL),B3
4,no binding (tested: about 30 µg/mL),B4
5,no binding (tested: about 30 µg/mL),B5
6,no binding (tested: about 30 µg/mL),B6
7,no binding (tested: about 20 µg/mL),B8

# Molecular target: T2, cynomolgus monkey SIRPα on CHO cells
# Experiment: flow cytometry, CHO transfectants, anti-human IgG
# Method in brief: as §2
row,binding result,Binder
1,no binding (tested: about 30 µg/mL),B1
2,no binding (tested: about 30 µg/mL),B2
3,no binding (tested: about 20 µg/mL),B7
4,no binding (tested: about 30 µg/mL),B3
5,no binding (tested: about 30 µg/mL),B4
6,no binding (tested: about 30 µg/mL),B5
7,no binding (tested: about 30 µg/mL),B6
8,no binding (tested: about 20 µg/mL),B8

# Molecular target: T9, human SIRPγ on stably transfected CHO cells (human, UniProt Q9P1W8 29-387)
# T9 construct: also called Human SIRPγ CHO
# T9 sequence (Q9P1W8 29-387 limits assumed): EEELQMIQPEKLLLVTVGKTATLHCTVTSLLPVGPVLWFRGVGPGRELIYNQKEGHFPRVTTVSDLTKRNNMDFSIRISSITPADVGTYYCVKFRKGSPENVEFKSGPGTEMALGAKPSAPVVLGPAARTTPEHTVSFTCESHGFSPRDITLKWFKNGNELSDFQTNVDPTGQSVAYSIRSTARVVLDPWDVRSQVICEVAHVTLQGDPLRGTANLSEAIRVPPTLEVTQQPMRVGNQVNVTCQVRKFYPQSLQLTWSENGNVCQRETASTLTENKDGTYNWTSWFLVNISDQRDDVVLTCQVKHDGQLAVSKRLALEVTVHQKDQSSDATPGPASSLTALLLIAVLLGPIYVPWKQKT
# Experiment: flow cytometry, CHO transfectants, anti-human IgG
# Method in brief: as §2
row,EC50 (read off the curve) [µg/mL],Binder
1,~0.1,B7
2,~0.7,B3
3,~0.2,B6
4,~0.9,B8

# Molecular target: T3, cynomolgus monkey SIRPγ on CHO cells
# Experiment: flow cytometry, CHO transfectants, anti-human IgG
# Method in brief: as §2
row,EC50 (read off the curve) [µg/mL],Binder
1,~0.4,B7
2,~0.2,B6
3,~0.8,B8

# Molecular target: T7, extracellular binding domain of human …
# Experiment: ELISA, coated SIRP ECD (2 µg/mL), anti-human IgG, luminescence
# Method in brief: (§3)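 Plate-coated SIRP extracellular domain (2 μg/mL), blocked, then exposed to purified antibodies in titration, after transient expression in Expi293F cells for 5 days and Protein A purification. Bound antibody is detected with anti-human IgG and a chemiluminescent substrate, and reported as relative luminescence units.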
row,EC50 (read off the curve) [µg/mL],Binder
1,~0.04,B3
2,~0.07,B4

# Molecular target: T4, Cynomolgus Monkey SIRPγ (plate-coated …)
# Experiment: as above
# Method in brief: as §3
row,binding result,Binder
1,binds,B7

# Reference: patent publication US20240400677A1 (ELECTRA THERAPEUTICS, published 2024)
